How the values were obtained:
[1] = test system: Enterokinase sensor, StrepII-GFP-(linker)-(protease site)-CGRP-Gly fusion with GGSG linker and DDDDK protease site, uncleaved
[2] = test system: TEV protease sensor, StrepII-GFP-(linker)-(protease site)-CGRP-Gly fusion with GGSG linker and ENLYFQG protease site, uncleaved
[3] = test system: Caspase-3 sensor, StrepII-GFP-(linker)-(protease site)-CGRP-Gly fusion with GGSG linker and DEVD protease site, uncleaved

enterokinase
proteolytic cleavage of the sensor, read by CGRP receptor activation [1]: after being cleaved by their respective protease

Tobacco Etch Virus (TEV) protease
proteolytic cleavage of the sensor, read by CGRP receptor activation [2]: after being cleaved by their respective protease

caspase-3
proteolytic cleavage of the sensor (MALDI spectrum) [3]: MALDI spectrum showing cleavage of caspase sensor
proteolytic cleavage of the sensor, read by CGRP receptor activation [3]: after being cleaved by their respective protease
